Measured values published in patent US20030186334A1, “KTS-disintegrins” (Temple University - Of the Commonwealth System of Higher …, priority 2001, published 2003).

Molecular target: human α1β1 integrin (human), P56199
Experiment: inhibition of adhesion of α1K562 cells to immobilised collagen IV

Chain of human α1β1 integrin (human), P56199 (P56199 29-1179, chain 1 of 2): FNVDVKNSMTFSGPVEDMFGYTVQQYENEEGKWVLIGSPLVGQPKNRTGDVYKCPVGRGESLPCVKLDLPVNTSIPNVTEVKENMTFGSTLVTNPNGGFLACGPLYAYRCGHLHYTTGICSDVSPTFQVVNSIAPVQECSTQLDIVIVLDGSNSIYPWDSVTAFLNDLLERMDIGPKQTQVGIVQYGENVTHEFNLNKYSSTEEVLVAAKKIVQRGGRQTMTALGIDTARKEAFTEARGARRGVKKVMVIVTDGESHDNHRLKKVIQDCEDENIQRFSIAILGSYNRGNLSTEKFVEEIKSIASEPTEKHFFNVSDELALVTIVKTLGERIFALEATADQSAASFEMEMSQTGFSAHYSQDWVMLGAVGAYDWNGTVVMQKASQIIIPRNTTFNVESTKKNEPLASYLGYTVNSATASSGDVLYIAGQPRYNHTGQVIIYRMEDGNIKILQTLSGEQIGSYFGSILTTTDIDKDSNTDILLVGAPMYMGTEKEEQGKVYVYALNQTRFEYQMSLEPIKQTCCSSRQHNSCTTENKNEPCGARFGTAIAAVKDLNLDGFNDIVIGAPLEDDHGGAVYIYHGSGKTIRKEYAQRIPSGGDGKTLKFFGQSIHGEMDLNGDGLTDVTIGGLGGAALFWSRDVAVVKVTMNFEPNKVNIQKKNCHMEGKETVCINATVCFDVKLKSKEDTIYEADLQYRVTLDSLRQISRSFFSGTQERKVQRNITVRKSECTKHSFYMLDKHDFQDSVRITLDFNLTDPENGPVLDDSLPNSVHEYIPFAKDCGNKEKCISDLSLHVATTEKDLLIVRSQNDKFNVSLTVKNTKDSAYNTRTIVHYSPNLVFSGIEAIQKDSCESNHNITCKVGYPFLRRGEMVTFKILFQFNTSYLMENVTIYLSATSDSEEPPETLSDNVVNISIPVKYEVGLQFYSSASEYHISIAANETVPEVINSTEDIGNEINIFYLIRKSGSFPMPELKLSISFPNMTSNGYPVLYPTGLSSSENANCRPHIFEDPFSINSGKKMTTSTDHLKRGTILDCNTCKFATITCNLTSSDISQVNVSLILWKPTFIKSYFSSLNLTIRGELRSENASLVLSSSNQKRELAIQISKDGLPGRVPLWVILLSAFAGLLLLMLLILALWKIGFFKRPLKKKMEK
Chain of human α1β1 integrin (human), P56199 (P05556 21-798, chain 2 of 2, further chain): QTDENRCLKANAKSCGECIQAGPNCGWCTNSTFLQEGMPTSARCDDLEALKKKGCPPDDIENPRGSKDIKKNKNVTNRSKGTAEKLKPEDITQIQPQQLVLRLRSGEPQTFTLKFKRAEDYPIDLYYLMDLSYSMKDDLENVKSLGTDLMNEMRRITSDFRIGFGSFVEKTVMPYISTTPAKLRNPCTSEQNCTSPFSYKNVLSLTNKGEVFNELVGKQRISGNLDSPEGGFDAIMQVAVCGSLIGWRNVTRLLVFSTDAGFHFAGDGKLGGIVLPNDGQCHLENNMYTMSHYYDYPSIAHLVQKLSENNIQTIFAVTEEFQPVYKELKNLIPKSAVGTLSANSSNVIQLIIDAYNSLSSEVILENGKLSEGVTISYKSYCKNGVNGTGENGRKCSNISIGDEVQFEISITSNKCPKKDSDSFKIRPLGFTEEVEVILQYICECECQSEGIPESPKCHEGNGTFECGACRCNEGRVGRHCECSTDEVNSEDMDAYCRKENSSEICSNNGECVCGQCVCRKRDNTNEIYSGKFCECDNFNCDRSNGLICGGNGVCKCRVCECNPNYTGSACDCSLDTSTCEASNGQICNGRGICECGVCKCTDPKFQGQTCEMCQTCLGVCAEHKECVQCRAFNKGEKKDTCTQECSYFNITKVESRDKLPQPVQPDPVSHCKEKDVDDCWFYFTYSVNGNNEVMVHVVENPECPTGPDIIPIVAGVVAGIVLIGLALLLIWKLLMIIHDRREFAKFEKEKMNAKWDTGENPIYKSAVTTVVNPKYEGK

TSLTS (modifications not checked) [synthetic peptide TSLTS (SEQ ID NO: 6)] gave an IC50 of 3.5 mM.
